System: Liver esterase from rabbit liver
Experiment: Camptothecin release study from camptothecin grafted copolymer (esterase incubation, GPC at 370 nm)
Type: in vitro ADME
Details: copolymer approximately 10 mg/ml in Tris Buffer, pH=8.0, rabbit liver esterase, 37° C.
Protocol: Samples of camptothecin grafted copolymer were prepared at approximately 10 mg/ml in Tris Buffer, pH=8.0. Liver esterase from rabbit liver (Sigma-Aldrich E0887-IKU, Lot #061K74451) was added to the sample and the sample was incubated at 37° C. for up to 65 hours.
GPC analysis of the samples was made using an HPLC system consisting of a Waters Alliance 2995 with Waters 2410 Refractive Index Detector, Waters 2996 Photodiode Array Detector, and a Shodex Protein KW-803 column. The mobile phase used for the elution was phosphate buffered saline containing 10% absolute ethanol. The flow rate was set to 1 ml/min and the presence of camptothecin monitored at 370 nm. Ten microliter injections of the samples were made at each time point.

## Camptothecin PC-Copolymer [camptothecin grafted copolymer]
Time 0 h
  Camptothecin Released: 0.059 mg/mL
Time 1 h
  Camptothecin Released: 0.079 mg/mL
Time 2 h
  Camptothecin Released: 0.132 mg/mL
Time 3 h
  Camptothecin Released: 0.130 mg/mL
Time 4 h
  Camptothecin Released: 0.128 mg/mL
Time 17 h
  Camptothecin Released: 0.208 mg/mL
Time 26 h
  Camptothecin Released: 0.251 mg/mL
Time 41 h
  Camptothecin Released: 0.335 mg/mL
Time 65 h
  Camptothecin Released: 0.427 mg/mL
